Measurements from patent publication US7879859B2, “Diagnosis and treatment of type 2 diabetes and other disorders” (Merck Sharp & Dohme Corp., priority 2005, dated 2011).
Values joined by “and” are separate entries in the source; they are usually repeats but may differ in a detail not shown here. Equal values may be shown once. d = 2'-deoxy (DNA); r = 2'-OH (RNA)

Experiments:
[1] = tested on: isolated mouse islets; test: Glucose-stimulated insulin secretion (GSIS) in isolated mouse islets; assay type: cell-based; details: 10 nM Octreotide, FIG. 1
Method: Pancreatic islets of Langerhans were isolated from the pancreas of normal C57BL/6J mice (Jackson Laboratory, Maine) by collagenase digestion and discontinuous Ficoll gradient separation, a modification of the original method of Lacy and Kostianovsky (Lacy et al., Diabetes 16:35-39, 1967). The islets were cultured overnight in RPMI 1640 medium (11 mM glucose) before GSIS assay. To measure GSIS, islets were first preincubated for 30 minutes in the Krebs-Ringer bicarbonate (KRB) buffer with 2 mM glucose (in petri dishes). The KRB medium contains 143.5 mM Na^+, 5.8 mM K^+, 2.5 mM Ca^2+, 1.2 mM Mg^2+, 124.1 mM Cl^−, 1.2 mM PO4^3−, 1.2 mM […], 25 mM CO3^2−, 2 mg/ml bovine serum albumin (pH 7.4). The islets were then transferred to a 96-well plate (one islet/well) and incubated at 37° C. for 60 minutes in 200 μl of KRB buffer with 2 or 16 mM glucose, and other agents to be tested such as octreotide and a SST3 antagonist. (Zhou et al., J. Biol. Chem. 278:51316-51323, 2003.) Insulin was measured in aliquots of the incubation buffer by ELISA with a commercial kit (ALPCO Diagnostics, Windham, N.H.).

[2] = tested on: INS-1 (832/13) cells; test: GSIS assay after siRNA mediated gene knockdown; assay type: cell-based, rat; details: compared to random sequence siRNA, 48 hours after electroporation
Method: Three 21-mer siRNA oligos were designed against each candidate gene and used as a pool at the final concentration of 20 uM. The siRNA oligos were delivered to the cells by Nucleofector Device (Amaxa, Gaithersburg, Md.). The INS-1 (832/13) cells were trypsinized, centrifuged, and resuspended in 100 ul Nucleofector solution V (2.25×10^6 cells per reaction). Seven and a half microliters of pooled siRNA were then added to the cell suspension. The cells were electroporated with Amaxa Nucleofector Device program T21. After electroporation, the cells were transferred and split into 9 wells in 96-well plate with 200 ul of regular culture medium (RPMI 1640 with 10% FCS and 11 mM glucose).
GSIS assays were performed after 48 hours. Prior to the assay, cells were washed once with glucose-free Krebs-Ringer Bicarbonate (KRB) medium and cells were incubated with the KRB medium for another 2 hours. The medium were replaced with fresh KRB supplemented with 2, 8, and 16 mM glucose and the cells were incubated for another 2 hours. Supernatants were taken out at the end of incubation for insulin measurement by Ultrasensitive Rat Insulin ELISA kit (ALPCO, Salem, N.H.).
GSIS assays were performed 48 hours after electroporation. The ratios of insulin concentration measured between 8 mM and 2 mM (G8/G2) and 16 mM and 2 mM (G16/G2) glucose treatments are functional readouts for GSIS. […]

[3] = tested on: sst3 mRNA; test: sst3 knockdown by Taqman real-time PCR; assay type: cell-based, rat; details: 48 hours after siRNA treatment; INS-1 832/13 cells
Method: The degree of gene knockdown by the siRNA oligos was quantified by Taqman real-time PCR also at 48 hours after electroporation. The method consistently obtained >70% knockdown of the target genes mRNA. We used PDE3b (phosphodiesterase 3B) and GCK (glucokinase) as two positive controls. As shown in Example 5, Table 6 (infra), compared to control-shocked INS-1 cells (using random sequence siRNA oligos), knocking down PDE3b increased GSIS by 1.5 to 3 fold, consistent with its role in hydrolyzing cAMP, a key positive mediator of GSIS.
The degree of sst3 knockdown was also examined 48 hours after siRNA treatment using Taqman real-time PCR. The rat sst3 specific probes were designed using Primer Express Software (Applied Biosystem) based on SEQ ID NO: 7 (Forward Primer: […] (SEQ ID NO: 15); Reverse Primer: […] (SEQ ID NO: 16); Probe: […] (SEQ ID NO: 17)). We observed about 55-75% reduction of sst3 mRNA in siRNA-treated cells.

C[C@@H](O)[C@@H]1NC(=O)[C@H](CCCCN)NC(=O)[C@@H](Cc2c[nH]c3ccccc23)NC(=O)[C@H](Cc2ccccc2)NC(=O)[C@@H](NC(=O)[C@H](N)Cc2ccccc2)CSSC[C@@H](C(=O)N[C@H](CO)[C@@H](C)O)NC1=O [Octreotide]
Effect on GSIS [1]: significantly suppressed

B1: si-SST3: pool of three pairs of siRNA oligos against rat sst3 (SEQ ID NO: 9-14) (nucleic acid)
chain 1: CCUUUCGGCUCUCUCAUGUTT
chain 2: GGGUUUGCUGGGCAAUUCATT
chain 3: CUGACGAACUCUUCAUGCUTT
chain 4: ACAUGAGAGAGCCGAAAGGTT
chain 5: UGAAUUGCCCAGCAAACCCTT
chain 6: AGCAUGAAGAGUUCGUCAGTT
modifications: sugars from the 5' end r19 d2, backbone not given here
Normalized fold of stimulation of GSIS, G8/G2 ([2]; insulin ratio 8 mM/2 mM glucose): 2.9 and 3 and 2.8 | Normalized fold of stimulation of GSIS, G16/G2 ([2]; insulin ratio 16 mM/2 mM glucose): 4.4 and 2.9 and 2.7 and 4.3 | Reduction of sst3 mRNA [3]: 55-75%
